Laboratory results as given in publication PMC7706699.

Target: hFip1 (residues 137–243) S159C/C189S/C216S mutant, FAM-labeled (human) (UniProt Q6UN15)
Test: fluorescence polarisation

| Substance | Kd [nM] |
| --- | --- |
| human CPSF30 (residues 62–244) Y127A mutant (from UniProt O95639-2 62-244) (domain or fragment) | 22 |
| human CPSF30 (residues 62–244) Y151A mutant (from UniProt O95639-2 62-244) (domain or fragment) | 5.4 |
| human CPSF30 ZF2–C terminus (residues 62–244), wild type (from UniProt O95639-2 62-244) (domain or fragment) | 11.4 |
